# In ChEMBL document CHEMBL1156528, “Acetyl-lysine analog peptides as mechanistic probes of protein deacetylases” (J Biol Chem, 2007):
# B1: NAD-dependent protein deacetylase HST2 (Saccharomyces cerevisiae S288c), P53686 (protein)
# chain: MSVSTASTEMSVRKIAAHMKSNPNAKVIFMVGAGISTSCGIPDFRSPGTGLYHNLARLKLPYPEAVFDVDFFQSDPLPFYTLAKELYPGNFRPSKFHYLLKLFQDKDVLKRVYTQNIDTLERQAGVKDDLIIEAHGSFAHCHCIGCGKVYPPQVFKSKLAEHPIKDFVKCDVCGELVKPAIVFFGEDLPDSFSETWLNDSEWLREKITTSGKHPQQPLVIVVGTSLAVYPFASLPEEIPRKVKRVLCNLETVGDFKANKRPTDLIVHQYSDEFAEQLVEELGWQEDFEKILTAQGGMGDNSKEQLLEIVHDLENLSLDQSEHESADKKDKKLQRLNGHDSDEDGASNSSSSQKAAKE
# How the values were obtained:
# [1] = substrate: C[C@H](NC(=O)[C@H](CCCCNC(N)=O)NC(=O)CNC(=O)CNC(=O)[C@@H](NC(=O)[C@H](CO)NC(=O)[C@@H](N)CCCCN)[C@@H](C)O)C(=O)N1CCC[C@H]1C(=O)N[C@@H](CCCNC(=N)N)C(=O)N[C@@H](CCCCN)C(=O)N[C@@H](CCC(N)=O)C(=O)O; assay: (§1) Activity of Saccharomyces cerevisiae Hst2
# [2] = substrate: CC(=O)NCCCC[C@H](NC(=O)CNC(=O)CNC(=O)[C@@H](NC(=O)[C@H](CO)NC(=O)[C@@H](N)CCCCN)[C@@H](C)O)C(=O)N[C@@H](C)C(=O)N1CCC[C@H]1C(=O)N[C@@H](CCCNC(=N)N)C(=O)N[C@@H](CCCCN)C(=O)N[C@@H](CCC(N)=O)C(=O)O; assay: as §1
protein,measurement,setting,value
B1,Vmax,[1],1.3 s⁻¹
same,kcat,[1],1.2 ×10⁻² /s
same,kcat,[2],0.2 s⁻¹
